According to patent publication US20210063414A1, “METHODS FOR PREVENTING AND/OR TREATING BONE LOSS CONDITIONS BY MODULATING IRISIN” (Dana-Farber Cancer Institute, Inc., priority 2018, published 2021):
Entries after “also recorded” stand apart in the source; their conditions may differ.

How the values were obtained:
integrin α5/β1 = biological target: T1, integrin α5/β1 (Homo sapiens, UniProt P05556+P08648); test: FAK phosphorylation in HEK293T cells with forced expression of integrin α5/β1; assay type: cell-based
T1 construct: expressed in transfected cells; host or cells: HEK293T
Protocol: 100 nM irisin was incubated with 5 nM indicated his-tag integrins followed by immunoprecipitation using Ni-NTA agaroses. Precipitated integrins and co-precipitated irisin were analyzed by immunoblot analysis. […] HEK293T cells were seeded and incubated until 50% cell density. The cells were transfected with 0.1 μg plasmids of indicated integrins. After 48 hours, the cells were re-split to indicated dose of vitronectin-coated plates. Cells were incubated with culture medium for 3 hours. Cells were lysed to detect the indicated protein level using immunoblot analysis. FIG. 15C and FIG. 15D show the immunoblot data. Cells were treated and analyzed as FIG. 14B except using plasmids encoding integrin α5/β1 or integrin α11/β1 (FIG. 15C) integrin αV/β1(FIG. 15D).
HEK293T cells were set up for experiments at 1×10^5 cells per well in 6 well plate. On day 2, cells were transiently transfected with the indicated plasmids with FuGENE® 6 reagent (Roche Applied Science) according to the manufacturer's protocol. […]
Cells were harvested in RIPA buffer containing protease-inhibitor cocktail and phosphataseinhibitor cocktail. […] Protein levels were analyzed via western blot using indicated antibody. […] Protein levels were analyzed using western blot against indicated antibody.

[1] = system: sclerostin mRNA in MLO-Y4 cells; test: Sclerostin mRNA in MLO-Y4 cells, qRT-PCR; assay type: cell-based, mouse; details: MLO-Y4, irisin 16 hours
Protocol: Cells were stained with Hoechst 33342 and Eth-D1, and analyzed to determine the percentage of cell death. *: p<0.05, ***: p<0.001 vs 0.3 mM H2O2 treated condition. […] MLO-Y4 cells were seeded and incubated until 60% cell density. The cells were incubated with Freestyle293 medium for 4 hours and were treated with indicated concentrations of irisin for 16 hours. Sclerostin mRNA level was analyzed by qRT-PCR. Cyclophilin was used as a control house-keeping gene.
MLO-Y4 cells were incubated in serum free medium for 3 hours followed by treatment of indicated concentrations of irisin for indicated time (FIG. 6A), or followed by treatment of 0 or 10 nM irisin in the presence of indicated integrin inhibitors or their control peptide for 16 hours (FIG. 6B). Sclerostin mRNA level was analyzed by qPCR.
Certain materials and methods were used to generate the results described herein. […] Cells were stained with Hoechst 33342 (ThermoFisher Scientific, catalog number H3570) and Eth-D1 (ThermoFisher Scientific, catalog number E1169) and analyzed to determine the percentage of cell death using ImageJ. […] Co-precipitated irisin was analyzed by immunoblot analysis against flag tag (Sigma Aldrich, catalog number A8592). […] Sclerostin mRNA level was analyzed by qPCR (FIG. 7A). […]

T1 sequence (P08648 42-894 limits assumed): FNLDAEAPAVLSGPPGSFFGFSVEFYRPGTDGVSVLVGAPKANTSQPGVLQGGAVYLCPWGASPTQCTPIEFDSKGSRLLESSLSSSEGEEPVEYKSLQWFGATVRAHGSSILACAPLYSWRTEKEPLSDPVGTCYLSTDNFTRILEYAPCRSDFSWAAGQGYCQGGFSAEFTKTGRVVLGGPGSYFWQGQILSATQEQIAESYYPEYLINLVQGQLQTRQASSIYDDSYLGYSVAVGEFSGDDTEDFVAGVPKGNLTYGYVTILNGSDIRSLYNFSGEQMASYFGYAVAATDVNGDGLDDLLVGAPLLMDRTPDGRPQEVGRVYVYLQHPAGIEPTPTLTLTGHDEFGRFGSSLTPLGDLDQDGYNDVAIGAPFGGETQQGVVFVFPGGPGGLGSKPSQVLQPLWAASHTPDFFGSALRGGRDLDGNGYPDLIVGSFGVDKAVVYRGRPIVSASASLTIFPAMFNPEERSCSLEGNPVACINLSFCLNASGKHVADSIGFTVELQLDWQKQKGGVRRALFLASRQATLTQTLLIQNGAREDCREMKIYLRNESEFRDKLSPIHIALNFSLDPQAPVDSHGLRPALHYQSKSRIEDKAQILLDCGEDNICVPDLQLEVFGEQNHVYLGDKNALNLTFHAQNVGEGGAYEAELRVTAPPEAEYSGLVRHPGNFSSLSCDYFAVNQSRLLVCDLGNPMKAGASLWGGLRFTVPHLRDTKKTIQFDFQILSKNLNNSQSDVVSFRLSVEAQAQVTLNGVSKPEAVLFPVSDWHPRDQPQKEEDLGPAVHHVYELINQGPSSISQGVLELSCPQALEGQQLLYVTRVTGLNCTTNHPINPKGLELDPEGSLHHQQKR
T1 sequence (P08648 895-1049 partner limits assumed): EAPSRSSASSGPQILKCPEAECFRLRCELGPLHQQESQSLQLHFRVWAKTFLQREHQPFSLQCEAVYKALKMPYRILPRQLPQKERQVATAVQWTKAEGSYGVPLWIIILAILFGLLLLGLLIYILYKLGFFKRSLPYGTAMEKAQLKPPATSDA
T1 sequence (P05556 21-798): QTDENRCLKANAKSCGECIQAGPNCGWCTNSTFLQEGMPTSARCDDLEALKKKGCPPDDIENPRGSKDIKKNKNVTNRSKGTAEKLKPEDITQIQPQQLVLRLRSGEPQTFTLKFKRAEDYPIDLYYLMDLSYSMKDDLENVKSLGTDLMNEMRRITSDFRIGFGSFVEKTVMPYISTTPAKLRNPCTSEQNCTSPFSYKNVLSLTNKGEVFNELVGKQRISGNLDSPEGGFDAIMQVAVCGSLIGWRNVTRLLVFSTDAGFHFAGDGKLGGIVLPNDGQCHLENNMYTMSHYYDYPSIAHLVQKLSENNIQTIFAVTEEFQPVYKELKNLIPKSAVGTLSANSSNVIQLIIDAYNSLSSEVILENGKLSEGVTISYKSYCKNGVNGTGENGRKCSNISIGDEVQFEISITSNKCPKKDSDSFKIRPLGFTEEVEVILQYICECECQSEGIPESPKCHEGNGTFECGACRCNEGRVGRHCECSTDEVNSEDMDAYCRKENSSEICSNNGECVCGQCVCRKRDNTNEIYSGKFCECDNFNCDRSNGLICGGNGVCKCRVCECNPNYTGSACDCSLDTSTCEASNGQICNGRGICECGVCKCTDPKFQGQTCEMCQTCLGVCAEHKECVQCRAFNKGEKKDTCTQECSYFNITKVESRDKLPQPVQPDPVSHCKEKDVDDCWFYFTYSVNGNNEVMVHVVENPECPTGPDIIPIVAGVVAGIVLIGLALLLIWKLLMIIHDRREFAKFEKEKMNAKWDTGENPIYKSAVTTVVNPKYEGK

B1: irisin: secreted cleaved form of FNDC5; recombinant human/mouse irisin with C-terminal his tag produced in HEK293 cells (protein)
chain: DSPSAPVNVTVRHLKANSAVVSWDVLEDEVVIGFAISQQKKDVRMLRFIQEVNTTTRSCALWDLEEDTEYIVHVQAISIQGQSPASEPVLFKTPREAEKMASKNKDEVTMKE
modifications: left off: small tags and cut ends
notes: secreted cleaved form of FNDC5; recombinant human/mouse irisin with C-terminal his tag produced in HEK293 cells
phosphorylation of FAK upon irisin treatment (integrin α5/β1): little phosphorylation of FAK above background
sclerostin mRNA level [1]: increased; also recorded: raised the mRNA level of sclerostin in the osteocyte cultures in a dose-dependent manner
